Source: the DeepSol protein solubility set

Assay: soluble on expression in E. coli; label from the status in PepcDB or PDB records

Sequence | soluble on expression in E. coli
MSVGKPLPHDSARAHVTGQARYLDDLPCPANTLHLAFGLSTEASAAITGLDLEPVRESPGVIAVFTAADLPHDNDASPAPSPEPVLATGEVHFVGQPIFLVAATSHRAARIAARKARITYAPRPAILTLDQALAADSRFEGGPVIWARGDVETALAGAAHLAEGCFEIGGQEHFYLEGQAALALPAEGGVVIHCSSQHPSEIQHKVAHALGLAFHDVRVEMRRMGGGFGGKESQGNHLAIACAVAARATGRPCKMRYDRDDDMVITGKRHDFRIRYRIGADASGKLLGADFVHLARCGWSADLSLPVCDRAMLHADGSYFVPALRIESHRLRTNTQSNTAFRGFGGPQGALGMERAIEHLARGMGRDPAELRALNFYDPPERGGLSAPPSPPEPIATKKTQTTHYGQEVADCVLGELVTRLQKSANFTTRRAEIAAWNSTNRTLARGIALSPVKFGISFTLTHLNQAGALVQIYTDGSVALNHGGTEMGQGLHAKMVQVAAAVLGIDPVQVRITATDTSKVPNTSATAASSGADMNGMAVKDACETLRGRLAGFVAAREGCAARDVIFDAGQVQASGKSWRFAEIVAAAYMARISLSATGFYATPKLSWDRLRGQGRPFLYFAYGAAITEVVIDRLTGENRILRTDILHDAGASLNPALDIGQIEGAYVQGAGWLTTEELVWDHCGRLMTHAPSTYKIPAFSDRPRIFNVALWDQPNREETIFRSKAVGEPPFLLGISAFLALHDACAACGPHWPDLQAPATPEAVLAAVRRAEGRA | soluble
MSVNMDELRHQVMINQFVLAAGCAADQAKQLLQAAHWQFETALSTFFQETNIPNSHHHH | soluble
MSVQPETMPDSSNKTNPTVKEVIAYLADKFPLCFSIEGEAKPLKVGLSQDLAEALADDEKVSKTLLRQVLRSYTMSWRYLACCKANAQRIGLQGENVGIVDEAQAEHAAQSLAVAKEAYAARKAEQRKEQRKDFFKKKAREERNAKTMNKAVKKGSPKKDTFAKATAESLAVLTHKFSKGNK | not soluble
MSVSPFFNPKRDSQLGEMMRDMGGMQRRLMPISGTFNPMTDDSEIMNSNDKFAVNLNVSNFKPEELKVNLEGRQLSIQGEHDVENEHGASRKSFSRMILLPEDVDITSVATNLSNDGKLCIEAPKLEGVCGRSVPVKEASMDHHHIE | not soluble
MSVSSRGAASPAHRTAPTKWLFTKEEMKKTASIQEGMSREEELASRQMAAAFIQEMIDGLNNVKDPKMKIGHTGLCVAHTHMHRFYYLHSFKKYDYRDVGAACVFLAGKSQECPRKLSHVISVWRERKDRKQLTTETARNEAAQIIVLLESMILQTIAFDLNVHLPHIYVLDIMKKVDKKEHYRPLTSCAYYFATDVIAVTDWSLRYSAASMSIVIIHLMAAYANVRIERLFADFINEDSPWYAKFDETMTNEKLREMEVDFLVTYRNSCQFHHASKFNFREHRPMLENPDVRKLDRTRDARSHSPMVHHVPDSTVNVRPRAYVPRDELTVERLNKERGVEEERRKRERDRMAGKLDSSTSSEKRARIDPLANNFVSSSSSSNGKLAPPPIPPQLNFPPPPIVSSGYNHKNQINRKNHENNHTNSSVSPAFVPSARTFDVAPMLTPPTAPKLQSADNSDMDLEDGELE | not soluble
MSVSYKGTISKTHSVFKPEKGRYYIYGALGCPFTHRAILARSLKKLEPVLGLVLSHWQLDSKGARFLPAPHRPEKYKERFFTATGGIASAKLDESEELGDVNNDSARLFVDGAFDPVENISRLSELYYLNDPKYPGTKFTVPVLWDSKTRKIVNNESGDIIRILNSGVFDEFIQSEETNVIDLVPHDLIDEIDKNIKWVHPKINLGVYKVGLAENGKIYETEVKTLFENLQKMECVLKENYKRLEEQFSGNKQKILAKYFVLGQRLTEADIRLYPSIIRFDVVYVQHFKCNLKTIRDGFPYLHLWLINLYWNYAEFRFTTDFNHIKLFYIRMEVSRNKINQFGIVPLGPKPDISRL | soluble
MSVTAPSARPAPDHHAQFLQLLDTSLTQNAFIKLVLAKHVGPEADLQRLIIKQLTVKEQPCLSFVYRYKTRDITKNFSLDEGIAAIAELLPAAFKNAHLLTLTDEVQLEYSKKGKSSLFKGKPQTQRDAPSAEHNREKNRFLDLSRPFLADLGVTNKQHELIPAMSRKWKQINKFIEVFSHALGSSPIKLDQPVRVADFGSGKGYLTFAIHDYLRNTLKAEGEVTGVELREDMVTLCNAAAQRLEHPGLVFKCGDVRSVAPSQLEVMIALHACDIATDYAIHTGIRSGAAIIMCSPCCHKQIRQQIQSPQLLKPMLQYGLHLGQQAEMVTDSLRALFLEACGYETKVFEFISLEHTNKNKMILAVKRAEPQDPSQLLARIEELKAFYQISEHCLETLLKADGYLG | soluble
MSVTLHTTSGDIKIELYVDDAPKACENFLALCASDYYNGCIFHRNIKDFMVQTGDPTHSGKGGESIWGGPFEDEFVSALKHDSRGCVSMANNGPDSNRSQFFITYAKQAHLDMKYTLFGKVIDGFDTLEEIETIKVDNKYRPLVQQK | not soluble
MSVTQIDLDDEALADVMRIAAVHTKKEAVNLAMRDYVERFRRIEALARSRE | soluble
MSVVAAVDCGTNSIRLLISEQTPTGLREITRQMTIIRLGEGVDATGKIDPVAIERARVALSGYVDTMLAHKVTAVRMVATSATRDASNKDDFFAMTADLLGAVVPGACAEVISGAEEAELSFIGAVADIPDTDRPVCVIDLGGGSTEFVVGKKTGEILGAYSTQMGCVRLTERLMVSDPPTAEEIAQAREYVDTQLTVALDNVPIMQASMVVGCAGTFTTVAALALGLDSYDPQRIHGSVHTADRLREETQRLIGETSQQRAAHSVMHLGRADVIAGGSVVIEQILAMMQRLGVSDSVTISEKDILDGIVARLLEELEHHHHHH | soluble
MSVVAQVSGEEVTRLLAPIDPAVPAGLFDVEDETYQAIDQEMVKLGGLQEASIDWVYIEDASRQYLSQQCKHLRIVAHLSAAWLRSGCWEQWGCTLALLAGMLECYWEAAHPKPGPKGFLGKRKLVALVIDRLAEALPRLDRFTYTPTHAAAAQAALKRLQQQETVQLDTAALGELERLLGKYSELANGVGEAAVPKAPAATEKPAPLADVIATPVSRMSMGNERETRRAVLSMAELINQQDPYDATGYQLRRFGLWAHIQVAPQVRQGNRTELMAVPLDITRFYEEAIASKAVDPALLQRIEKSLTACPFWIRGSFLAATVATQLAMCEVAEAIRCATARFVQRMPSLQQLCFSDGMVFVDDQCLAWLKGTQGPSGQGATPQEFSGLREELVSQLETGGIEPLLLRLQGLQAGVRAPRERCHTTVIAADLLAARGVSWLAQDLCANVARTMQQTTASAWEPEVFERLQQYAASPVLAVQDKDQEPR | not soluble
MSVVSPDPAPVPHDPQRRALLRWLVGGGALAGGLGVSAVAQGYRFGVTHEQWNLVGLTRPVRLALLTDLHYGLYIGAGSVRRWVDATLAECPDLILLGGDLVDSHFDAAARPQQTAALLAELGRLRAPLGVYAVWGNHDYGSFGRSISQSPEASRADWAARRDALRAGLAGQGVTVLLNEGRSLRDDLWLGGVDDLRMGEADSVAALRGSGTRATVLLAHNPDVLLRLRSAPGLVLSGHTHGGQVRLPLLGALKVPADPRFTMGWVRGPQGIPAYVSRGLGMSGLPVRNLCEPEITLLTLLPPGALEHHHHHH | not soluble
MSWSDIINNNLIGSGNVSKAAILGFDGAVWAKSDNFNISVEEAVAAGKAFTSLDALLGTGLRLEGQKFLVLNADNDRIIGKQGGSGFFIYKTIQAVIISIYEKGLQPEMCSKTTGALADYFRSIKY | not soluble
MSYLDTATDLPNQTLFLEYLNIALSNARRHHAQVGVLLCQINNWSDLKRKRGDAVANAFLQEAGQKLKSNLRNGDIVSRWDKDEFIFLVSKVQDTSSLLGIAQRLMKPVLAPVTAGGRPFQPEITYGVALYPVDGEQVNDLIGHIRENLQQLLPQPTNPGSGLEHHHHHH | soluble
MSYNEKSEAIIKEEWLQRLEQFPFKQADMNRLIMNYLVTEGFKEAAEKFQHEADLEPSVELSSLDGRILIREAVQAGRIEEATQLVNQLHPELLGSDRYLFFHLQQLQLIELIRAGKVEEALSFAQSKLSESGEEAMFELERTLALLAFEKPQESPFADLLEQSYRQKIASELNSAILRCEQSEDSTPKMMFLLKLILWAQSKLDSRSISYPKMKNLETAHLEPKLEHHHHHH | not soluble
MSYYHHHHHHLESTSLYKKALAYTLPQLPYAYDALEPHIDARTMEIHHTKHHQTYVDNANKALEGTEFADLPVEQLIQQLDRVPADKKGALRNNAGGHANHSMFWQIMGQGQGQNGANQPSGELLDAINSAFGSFDAFKQKFEDAAKTRFGSGWAWLVVKDGKLDVVSTANQDNPLMGEAIAGVSGTPILGVDVWEHAYYLNYQNRRPDYLAAFWNVVNWDEVSKRYAAAK | soluble
MSYYHHHHHHLESTSLYKKSSSTPPRGVTVVNNFDAKRYLGTWYEIARFDHRFERGLEKVTATYSLRDDGGLNVINKGYNPDRGMWQQSEGKAYFTGAPTRAALKVSFFGPFYGGYNVIALDREYRHALVCGPDRDYLWILSRTPTISDEVKQEMLAVATREGFDVSKFIWVQQPGS | soluble
MTAKPLPIFLLPISAIRKAMEQMSFAELLIISILSKNAKDFVTLLTKPLKNMIISVDCWLSLKLVTASSELYLLYFKRKQRVRIEKSPYDKRYKKLYLPGFTEKQWIGHIVRVFSHNNGIVLSLKPLFSFRRGKIKETVELFKGLNVRKLVNHDSRIENRQLLKLFPTPNYLRLSNDYICESILVQNFETLELLEKKLSLNDILTTNCTNLEIHYQSLSDRNLNLFMKHWIRGSNPNLQSICVNFSREMRSFGAEVFKGIDHRKTIPQENFYWGKH | not soluble
MTALETQLTEIVEKEQGQKIIPFLQKLTQEERESLIPCLSRLEEYYNKFVQLEERTYGTRATSGQHHIIDLAALVIFPLKEFRKHEWGINTAHLNEIAAWHIPTWLDSYFVEGEGKEFGGFYNMDYEILMDWIERGILTISPSPQTIAGYLVNYIHTTPVLEKRDITINEHIWYLFEYDCGQNWHANPAKGYPYYTFQHFTENGKLDRMRVLKESLLAINRNFNKNLCSWFAGMFTALSPSVEEQLTLQPEMLAALSSPHSRPINIILGLLKNLCSHPRFLTDDFLDQTTVLFASDVKAVHQNTLGVLSKLAKEKKEYRDTICCAAAQGLMSRDESTQNKIVKLIQTFGETESPTLKEALSAYAETMLTSTKKELAAYLKDNVSDALSTDKVLLTTLDEQASVASFDYEPMPPILREDNRIQEITSIEDLIFLASQILDSNELYHFDLFLNALVEWNEQLEAKHITQWTPVLQRAYKLLINGGSSRNGILDSMMATFLIDYAKLLIKRFPVEAKELSTLHEKMVQKDELQKGQWRYRNLQRITIRQKSNKRTEFPIHKQLLYRTLDLLESNENRLPMLSTPTHMPAFIDPIVLIKRLGQYQQANAEPDDIDMQIALSRMALNNYPSQDFPTVLQELKGEYQSLFSFLIGAKDAVPQAPFAHPSWWMTAGLIKSPETVYTEFKDFSYSKSSREFLTGNFSWWTFQTPHSYTDYHNKVVNWTSSTLSFNVPEGENIHIVNKGKYDERVSYHSYDPHPLLVEMYSQIERYDDIQNDLPRLVWLAPNTPEPLFVWCIRCAIYDPMLNEVREVGITQATIEALHQLRHEWHETSYLLEASCMLVADKTSRSYAAGIWTDRVNTGCIDSARIGRILGSHQRTGWGPLKRLTDLIQQQMINVSPLHNRELELLLTSLIAELPEQPVKELKKLLEIYSELLSVNNSRVTDERILQLLEIWKNTANLKKVIVSINR | not soluble
MTAPRDVRVRTLSLLLPEPGRKGRLAAISAAVCHRRDMATYRYLDKDRNVLEEQDFGTVQDAEEHRLSVLGAEIIEEVEDSGTPES | not soluble
